Assay results: patent publication US20210340249A1, “MUSCARINIC ACETYLCHOLINE RECEPTOR BINDING AGENTS AND USES THEREOF” (VIB VZW, priority 2013, published 2021)
Entries after “also recorded” stand apart in the source; their conditions may differ. Values belong to the molecule of their own block, whether it stands above or below them.

Biological target: T1, human M2 muscarinic receptor (Homo sapiens, UniProt P08172, DEL233-374/N2D/N3D/N6D/N9D)
T1 construct: FLAG (N); 8xHis (C); made in house; host or cells: Sf9 insect cells, BestBac baculovirus system
T1 sequence (P08172 with tags, fused parts or gaps N2D/N3D/N6D/N9D/DEL233-374): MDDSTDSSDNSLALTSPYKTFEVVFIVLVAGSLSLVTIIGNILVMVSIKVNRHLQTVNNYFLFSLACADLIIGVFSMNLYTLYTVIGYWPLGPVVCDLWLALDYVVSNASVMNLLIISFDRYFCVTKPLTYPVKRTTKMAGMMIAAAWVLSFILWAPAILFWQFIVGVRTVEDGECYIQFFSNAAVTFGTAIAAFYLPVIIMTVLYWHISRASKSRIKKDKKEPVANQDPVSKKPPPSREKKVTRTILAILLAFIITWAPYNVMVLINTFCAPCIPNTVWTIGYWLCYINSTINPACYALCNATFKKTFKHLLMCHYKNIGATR
Test: M2 receptor radioligand binding assay (3H N-methyl scopolamine, receptor reconstituted into HDL particles)
Conditions: for enhancement of M2 receptor affinity for the agonist iperoxo: competition binding assay, iperoxo vs 3H N-methyl scopolamine, compared with G protein Gi
Source text: M2 muscarinic receptor expression and purification. The human M2 muscarinic receptor gene was modified to remove glycosylation sites, and to add an amino-terminal FLAG tag and a carboxy-terminal 8×His tag. In addition, residues 233-374 of intracellular loop 3 were deleted. […] Human M2 muscarinic receptor bearing an amino-terminal FLAG epitope tag and carboxy-terminal 8×His tag was expressed in Sf9 cells using the BestBac baculovirus system (Expression Systems; Davis, Calif.). Cells were infected at a density of 4×10^6 cells/mL, then incubated for two days at 27° C. Receptor was extracted and purified in the manner described previously for the M3 muscarinic receptor (Kruse et al., 2012). Briefly, receptor was first purified by Ni-NTA chromatography, FLAG affinity chromatography, then size exclusion chromatography. 1 μM atropine was included in all buffers. Receptor was then labeled with a 5-fold molar excess of biotin-NHS ester (Sigma-Aldrich; St. Louis, Mo.) in buffer containing 25 mM HEPES pH 7.2. Following a 30 minute incubation at room temperature and a 30 minute incubation on ice, unreacted label was quenched with 50 mM Tris pH 8. Directly labeled samples with fluorophore-NHS esters were prepared similarly. Receptor was then desalted into buffer containing either 10 μM tiotropium, 10 μM iperoxo, or buffer containing no ligand. Receptor eluted in buffer containing no ligand was treated with 50 μM iperoxo mustard (derivative of iperoxo that allows covalent binding to M2 receptor) for 20 minutes at room temperature. Samples were then concentrated, aliquoted, and flash frozen with 20% (v/v) glycerol.
M2 receptor radioligand binding assays. M2 receptor was expressed and purified, as described above. Receptor was then reconstituted into HDL particles consisting of apolipoprotein A1 and a 3:2 (mol:mol) mixture of the lipids POPC:POPG (1-palmitoyl-2-oleoyl-sn-glycero-3-phosphocholine: 1-palmitoyl-2-oleoyl-sn-glycero-3-phosphocholine and 1-hexadecanoyl-2-(9Z-octadecenoyl)-sn-glycero-3-phospho-(r-rac-glycerol), respectively, Avanti Polar Lipids). Binding reactions contained 50 fmol functional receptor, 0.6 nM 3H N-methyl scopolamine (NMS), 100 mM NaCl, 20 mM HEPES pH 7.5, 0.1% BSA, and ligands and nanobodies as indicated. Single point allosteric effects of nanobodies were measured in the presence of 10 nM iperoxo. Concentration-dependent effects of nanobodies were measured in the presence of 10 nM iperoxo. All reactions were 500 μL in volume. Reactions were mixed and then incubated for two hours. Samples were then filtered on a 48-well harvester (Brandel) onto a filter which had been pretreated with 0.1% polyethylenimine. All measurements were taken by liquid scintillation counting, and experiments were performed at least in triplicate.
To determine whether the Nanobody variants that specifically stain agonist-bound M2 receptor are able to stabilize the M2 receptor active state, a binding assay was performed. Due to the allosteric properties of GPCRs, molecules that stabilize the active conformation of a receptor also increase agonist affinity. Several conformationally specific binders were isolated and were tested for their ability to induce an increase in the affinity of the non-covalent agonist iperoxo.

enhancement of M2 receptor affinity for the agonist iperoxo: confirmed to enhance agonist affinity
B1: Nb9-20: Nanobody SEQ ID NO:11; M2 Gi mimetic (protein, listed as Lama glama)
VHH: QVQLQESGGGLVQPEGSLTLACDTSGFTMNYYAIAWFRQAPEKEREGLATISSIDGRTYYADSVKGRFTISRDSAKNMVYLQMNNLRPEDTAVYYCSAGPDYSDYGDESEYWGQGTQVTVSS

enhancement of M2 receptor affinity for the agonist iperoxo: confirmed to enhance agonist affinity
B2: Nb9-1: Nanobody SEQ ID NO:2; M2 Gi mimetic (protein, listed as Lama glama)
VHH: QVQLQESGGGLVQAGGSLRLSCAASGHTFSSARMYWVRQAPGKEREFVAAISRSGFTYSADSVKGRFTISRDIANNTVYLQMNSLQPEDTAIYTCYAAYLDEFYNDYTHYWGLGTQVTVSS

EC50 (concentration-dependent effect of nanobody in the presence of 10 nM iperoxo, 0.6 nM 3H N-methyl scopolamine, read-out: EC50 of nanobody effect on agonist ability to displace a radioactive probe): ~100 nM
dose-dependent effect on agonist ability to displace a radioactive probe (in the presence of 10 nM iperoxo, 3H N-methyl scopolamine): dose-dependent effect
B3: Nb9-8: Nanobody SEQ ID NO:1; M2 Gi mimetic, active-state stabilizing, binds intracellular surface of M2 receptor (protein, listed as Lama glama)
VHH: QVQLQESGGGLVQAGDSLRLSCAASGFDFDNFDDYAIGWFRQAPGQEREGVSCIDPSDGSTIYADSAKGRFTISSDNAENTVYLQMNSLKPEDTAVYVCSAWTLFHSDEYWGQGTQVTVSS
enhancement of M2 receptor affinity for the agonist iperoxo: confirmed to enhance agonist affinity; also recorded: enhanced the affinity of the M2 receptor for iperoxo to almost the same extent as that observed in the presence of the heterotrimeric G protein Gi; also recorded: substantial enhancement of iperoxo affinity

B4: clone B4: Nanobody SEQ ID NO:16; functional extracellular M2 nanobody ligand (protein, listed as Lama glama)
VHH: QVQLQESGGGLVQAGGSLRLSCAASGRTFSNYAMSWFRQAPGKERGLVATIYRSGEGTYYLPSAKGRFTVSRDNAKNTAYLQMNSLKAEDTAVYYCAVMSRGTWSMWGQGTQVTVSS
effect on binding of the radioligand N-methylscopolamine (allosteric binding properties) (single point, with and without agonist (10 nM iperoxo)): decrease in the binding of the radioligand N-methylscopolamine only in the presence of agonist
